From US20080038265A1 (published 2008)
Changes are numbered by the printed parent chain.

T1: soluble EpoR (EposR) (human, UniProt P19235 25-250, limits assumed)
T1 construct: Test antigen in BIAcore and in yeast display assays; also called soluble recombinant human EpoR
T1 sequence (looked up): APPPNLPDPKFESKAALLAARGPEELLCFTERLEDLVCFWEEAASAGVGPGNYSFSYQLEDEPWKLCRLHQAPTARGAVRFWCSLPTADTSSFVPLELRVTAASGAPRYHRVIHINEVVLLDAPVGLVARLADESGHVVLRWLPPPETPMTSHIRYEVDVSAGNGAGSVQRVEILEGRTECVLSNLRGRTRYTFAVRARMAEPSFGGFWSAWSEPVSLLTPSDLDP

B1: Ab12.118 (antibody, IgG2, V domains shown)
VH: QVQLQESGPGLVKPSETLSLTCTVSGASISSYYWSWIRQPPGKGLEWIGYIGYSGSTNYNPSLKSRVTISVDTSKNQFSLKLRSVTAADTAVYYCARERLGIGDYWGQGTLVTVSS
VL: DIQLTQSPSSLSASVGDRVTITCRASQGIRNDLGWYQQKPGKAPKRLIYAASSLQSGVPSRFSGSGSGTEFTLTISSLQPEDFATYYCLQHNTYPPTFGQGTKVEIK
B2: Ab12.120 (antibody, IgG2, V domains shown)
VH: B1 VH with G52Y, S54E
VL: B1 VL
B3: Ab12.56 (antibody, IgG2, V domains shown)
VH: B1 VH with G52A, Y53G, S54T
VL: B1 VL
B4: Ab12.119 (antibody, IgG2, V domains shown)
VH: B1 VH with G52Y, Y53G
VL: B1 VL
B5: Ab12.121 (antibody, IgG2, V domains shown)
VH: B1 VH with Y53G
VL: B1 VL
B6: Ab12.122 (antibody, IgG2, V domains shown)
VH: B1 VH with G52Y, Y53G, S54E
VL: B1 VL
B7: Ab12.123 (antibody, IgG2, V domains shown)
VH: B1 VH with S54E
VL: B1 VL
B8: Ab12.6 (antibody, V domains shown)
VH: B1 VH with Y53G, S54E
VL: B1 VL
B9: Ab12 (antibody, human IgG2, V domains shown)
VH: B1 VH with G52Y
VL: B1 VL
B10: Ab12 41/WT (scFv)
scFv displayed on yeast: GENKVEYAPALMALSQVQLQESGPGLVKPSETLSLTCTVSGASISSYYWSWIRQPPGKGLEWIGYIYYSGSTNYNPSLKSRVTISVDTSKNQFSLKLRSVTAADTAVYYCARERLGIGDYWGQGTLVTVSSGGGGSGGGGSGGGGSDIQLTQSPSSLSASVGDRVTITCRASQGIRNDLGWYQQKPGKAPKRLIYAASSLQSGVPSRFSGSGSGTEFTLTISSLQPEDFATYYCLQHNTYPPTFGQGTKVEIK
notes: also called Ab12 scFv construct with linker 41 in the tether position and the Gly/Ser linker (WT) in the scFv linker position

molecular target: human erythropoietin receptor on human erythroleukemic cells (UT-7/Epo, F36E) (human), P19235; assay: cell-based or functional assay
Sequence (P19235 25-508, stated change not applied): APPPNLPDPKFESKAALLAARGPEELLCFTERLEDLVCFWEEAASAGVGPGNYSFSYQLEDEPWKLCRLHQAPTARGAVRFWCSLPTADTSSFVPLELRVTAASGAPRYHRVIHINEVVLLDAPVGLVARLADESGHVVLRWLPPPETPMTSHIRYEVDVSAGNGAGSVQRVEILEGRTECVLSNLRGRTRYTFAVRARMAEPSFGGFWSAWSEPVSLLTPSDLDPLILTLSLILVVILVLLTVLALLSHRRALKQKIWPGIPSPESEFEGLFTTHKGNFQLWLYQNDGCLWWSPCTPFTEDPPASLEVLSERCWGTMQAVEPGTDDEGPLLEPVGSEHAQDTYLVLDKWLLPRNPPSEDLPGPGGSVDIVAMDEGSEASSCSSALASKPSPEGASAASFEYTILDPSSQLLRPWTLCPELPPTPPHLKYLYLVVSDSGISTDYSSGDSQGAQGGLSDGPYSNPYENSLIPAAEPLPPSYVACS

EC50, cell proliferation assay [nM] | Emax, cell proliferation assay [absorbance] | Binder
1.13 | 2.65 | B1
0.34 | 2 | B2
1.17 | 2.51 | B3
1.34 | 2.53 | B4
0.465 | 2.3 | B5
0.42 | 2.4 | B6
0.91 | 2.7 | B7
0.58 | 2.81 | B8
1.29 | 1.98 | B9

molecular target: T1, soluble EpoR (EposR); assay: yeast surface display, flow cytometry: equilibrium titration of scFv-displaying yeast with soluble EpoR at 37 C, bound EposR detected with MAB307 + anti-mouse RPE
Protocol: Functional cell surface protein expression was compared by incubating the transformed yeast with increasing concentrations of soluble EpoR (EposR) at 37° C.

EC50 (read off the curve) [nM] | Binder
~6 | B10
